B1: Ras-related protein Rap-1A (Homo sapiens), P62834 (parent)
chain: MREYKLVVLGSGGVGKSALTVQFVQGIFVEKYDPTIEDSYRKQVEVDCQQCMLEILDTAGTEQFTAMRDLYMKNGQGFALVYSITAQSTFNDLQDLREQILRVKDTEDVPMILVGNKCDLEDERVVGKEQGQNLARQWCNCAFLESSAKSKINVNEIFYDLVRQINRKTPVEKKKPKKKSCLLL

Variants of: B1
Settings: with braf_human BRAF

Row | Variant | effect of a mutation on the interaction
1 | MREYKLVVLGSGGVGKSALTVQFVQGIFVEKYDPTIEDSYRKQVEVDCQQCMLEILDTAGTEQFTAMRDLYMKNGQGFALVYSITAQSTFNDLQDLREQILRVKDTEDVPMILVGNKCDLEDERVVGKEQGQNLARQWCNCAFLESSAKSKINVNEIFYDLVTQINRKTPVEKKKPKKKSCLLL [R163T] | with no effect

From IntAct's records for PubMed 26280580
